Data reported in article PMC5066740.

Legend:
[1] = biological target: MtTT8 (Medicago truncatula)
[2] = biological target: MtWD40-1 (Medicago truncatula)

Sequence of MtTT8 (Medicago truncatula) (main, as listed by the source): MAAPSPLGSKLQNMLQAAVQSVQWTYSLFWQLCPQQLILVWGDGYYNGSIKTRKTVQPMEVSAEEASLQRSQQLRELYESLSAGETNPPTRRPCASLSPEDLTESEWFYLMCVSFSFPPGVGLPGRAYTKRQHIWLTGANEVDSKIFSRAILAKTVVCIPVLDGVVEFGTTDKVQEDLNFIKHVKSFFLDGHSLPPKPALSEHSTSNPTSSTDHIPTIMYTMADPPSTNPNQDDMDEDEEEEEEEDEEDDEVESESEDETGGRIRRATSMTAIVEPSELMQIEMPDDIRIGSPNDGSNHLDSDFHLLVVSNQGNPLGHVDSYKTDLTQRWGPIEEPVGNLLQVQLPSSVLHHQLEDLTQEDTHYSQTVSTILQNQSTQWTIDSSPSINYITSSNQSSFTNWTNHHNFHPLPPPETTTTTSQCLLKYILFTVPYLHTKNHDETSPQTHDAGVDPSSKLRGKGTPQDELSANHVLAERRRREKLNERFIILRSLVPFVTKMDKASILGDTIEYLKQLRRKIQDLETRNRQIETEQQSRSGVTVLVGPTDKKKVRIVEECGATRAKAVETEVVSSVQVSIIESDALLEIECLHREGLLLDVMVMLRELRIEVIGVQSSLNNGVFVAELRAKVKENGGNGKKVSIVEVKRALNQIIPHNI

- ANR promoter::luciferase reporter activity in Arabidopsis leaves co-bombarded with 35S-driven MtPAR, MtTT8 and MtWD40-1 effectors, against empty vector controls [1]: 9 fold
- ANR promoter::luciferase reporter activity in Arabidopsis leaves co-bombarded with 35S-driven MtPAR, MtTT8 and MtWD40-1 effectors, against empty vector controls [2]: 9 fold
Substance: Medicago PROANTHOCYANIDIN REGULATOR (MtPAR) (natural protein)
